Assay results from PMC12120360, “Lysine acetylation modulates s‐OPA1 GTPase activity and oligomerization in mitochondrial membrane remodeling” (Protein Science : A Publication of the Protein Society, 2025).
Changes are numbered by the printed parent chain.

B1: s-OPA1 K579R (domain or fragment, human, UniProt O60313-1 195-960, looked up)
chain: ATDRGSESDKHFRKVSDKEKIDQLQEELLHTQLKYQRILERLEKENKELRKLVLQKDDKGIHHRKLKKSLIDMYSEVLDVLSDYDASYNTQDHLPRVVVVGDQSAGKTSVLEMIAQARIFPRGSGEMMTRSPVKVTLSEGPHHVALFKDSSREFDLTKEEDLAALRHEIELRMRKNVKEGCTVSPETISLNVKGPGLQRMVLVDLPGVINTVTSGMAPDTKETIFSISKAYMQNPNAIILCIQDGSVDAERSIVTDLVSQMDPHGRRTIFVLTKVDLAEKNVASPSRIQQIIEGKLFPMKALGYFAVVTGKGNSSESIEAIREYEEEFFQNSKLLKTSMLKAHQVTTRNLSLAVSDCFWKMVRESVEQQADSFKATRFNLETEWRNNYPRLRELDRNELFEKAKNEILDEVISLSQVTPKHWEEILQQSLWERVSTHVIENIYLPAAQTMNSGTFNTTVDIKLKQWTDKQLPNKAVEVAWETLQEEFSRFMTEPKGKEHDDIFDKLKEAVKEESIKRHKWNDFAEDSLRVIQHNALEDRSISDKQQWDAAIYFMEEALQARLKDTENAIENMVGPDWKKRWLYWKNRTQEQCVHNETKNELEKMLKCNEEHPAYLASDEITTVRKNLESRGVEVDPSLIKDTWHQVYRRHFLKTALNHCNLCRRGFYYYQRHFVDSELECNDVVLFWRIQRMLAITANTLRQQLTNTEVRRLEKNVKEVLEDFAEDGEKKIKLLTGKRVQLAEDLKKVREIQEKLDAFIEALHQEK
modifications: endogenous lysine acetylation, sites listed in Figure 2c
notes: Optic Atrophy 1 (OPA1), human, short form (s-OPA1), residues 195-960; domain model of isoform 1; Gene bought from Genscript in the pGS-21a vector; source: E. coli BL21 (DE3), purified (glutathione resin, 3C protease cleavage, size exclusion chromatography)
B2: s-OPA1 K663Q (domain or fragment, human, UniProt O60313-1 195-960, looked up)
chain: B1 chain with R385K, K469Q
modifications: endogenous lysine acetylation, sites listed in Figure 2c
notes: as for B1
B3: s-OPA1 K663R (domain or fragment, human, UniProt O60313-1 195-960, looked up)
chain: B1 chain with R385K, K469R
modifications: endogenous lysine acetylation, sites listed in Figure 2c
notes: as for B1

Target: the molecule itself
Assay: mass photometry; protein in solution at 75 nM final; 20 mM HEPES-NaOH pH 7.5, 130 mM NaCl, 10 mM KCl, 2 mM MgCl2, 2 mM DTT, 2% glycerol; Refeyn mass photometer; mass measured three times for each protein

Row | Protein | stoichiometry N
1 | B1 | 2
2 | B2 | 2
3 | B3 | 2
